# Where a chain is given by its changes, count along the chain named. In names and notes the source's numbering stands. Several values for one entry are separate records, joined by “and”; a condition that tells them apart may be missing. Equal entries are not always repeated.
# T1: human IL-22RA on cells (HepG2 hepatoma cells, normal human keratinocytes, BaF3 cells transfected with human … (human, UniProt Q8N6P7 16-574))
# T1 sequence: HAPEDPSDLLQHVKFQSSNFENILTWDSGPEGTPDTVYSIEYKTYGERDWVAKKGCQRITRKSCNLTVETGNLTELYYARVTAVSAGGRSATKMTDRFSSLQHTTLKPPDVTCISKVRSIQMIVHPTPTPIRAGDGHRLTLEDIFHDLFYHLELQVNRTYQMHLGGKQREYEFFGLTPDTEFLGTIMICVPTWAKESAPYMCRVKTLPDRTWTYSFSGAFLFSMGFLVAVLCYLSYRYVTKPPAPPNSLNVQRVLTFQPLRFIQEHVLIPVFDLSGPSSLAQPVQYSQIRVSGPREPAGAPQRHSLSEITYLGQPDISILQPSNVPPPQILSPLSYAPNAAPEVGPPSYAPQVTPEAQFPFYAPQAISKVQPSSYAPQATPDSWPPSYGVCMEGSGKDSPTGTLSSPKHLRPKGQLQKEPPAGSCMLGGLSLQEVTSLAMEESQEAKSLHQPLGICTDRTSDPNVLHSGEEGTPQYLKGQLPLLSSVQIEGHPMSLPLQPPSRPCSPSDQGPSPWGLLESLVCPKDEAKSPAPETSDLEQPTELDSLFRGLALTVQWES
# T2: murine IL-22RA on cells (HEPA1-6 hepatoma cells, BaF3 cells transfected with murine IL-22RA and IL-10RB) (murine, UniProt Q80XZ4 16-581)
# T2 sequence (looked up): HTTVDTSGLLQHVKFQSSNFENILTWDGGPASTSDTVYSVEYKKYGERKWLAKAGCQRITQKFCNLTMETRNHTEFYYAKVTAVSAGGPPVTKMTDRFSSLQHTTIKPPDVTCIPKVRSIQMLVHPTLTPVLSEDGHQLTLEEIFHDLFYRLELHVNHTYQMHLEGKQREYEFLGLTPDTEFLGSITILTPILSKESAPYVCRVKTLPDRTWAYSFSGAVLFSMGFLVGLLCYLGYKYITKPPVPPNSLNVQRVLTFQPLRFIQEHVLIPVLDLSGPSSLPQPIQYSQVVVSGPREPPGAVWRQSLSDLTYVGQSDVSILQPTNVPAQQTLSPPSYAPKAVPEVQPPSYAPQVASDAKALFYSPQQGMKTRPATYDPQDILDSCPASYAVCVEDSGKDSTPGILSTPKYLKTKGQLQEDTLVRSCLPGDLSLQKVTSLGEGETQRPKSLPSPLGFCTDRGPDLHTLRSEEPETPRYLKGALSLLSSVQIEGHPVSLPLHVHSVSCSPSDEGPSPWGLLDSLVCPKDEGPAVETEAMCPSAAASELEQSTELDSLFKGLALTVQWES
# B1: mouse 280.46.3.4 (mouse anti-human IL-22RA monoclonal antibody from hybridoma 280.46.3.4, ATCC PTA-6284) (antibody, V domains shown)
# VH: EVQLQQSGPELVRPGTSVKISCKASGYSLTADYMNWVKQSPEESLEWIGEINPSTGTTTYNQKFEAKATLTVDQSSNTAYLQLTSLTSEDSAVYYCARFDAYFDYWGQGTTVTVSS
# VL: DIVMTQSPSSLAVSVGEKVTMSCKSSQSLLYSSNQKNCLAWYQQKPGQSPKLLIYWASSRESGVPDRFTGSGSGTDFTLTISSVKTEDLAVYYCQQYFSYPFTFGSGTKLEIKR
# B2: humanized 280.46.3.4 antibody comprising 280.VH3-66-1 paired with 280.VK4-1-S, human IgG1/kappa (antibody, V domains shown)
# VH: EVQLVESGGGLVQPGGSLRLSCAASGYSLTADYMNWVRQAPGKGLEWIGEINPSTGTTTYNQKFEARATLTVDQSKNTAYLQMNSLRAEDTAVYYCARFDAYFDYWGQGTLVTVSS
# VL: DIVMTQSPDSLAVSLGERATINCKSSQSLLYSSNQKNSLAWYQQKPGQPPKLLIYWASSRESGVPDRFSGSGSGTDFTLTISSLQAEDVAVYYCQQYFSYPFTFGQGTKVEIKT
# B3: Fab of D96E mutant: 280.VH3-66-4 with Asp to Glu at position 96, paired with 280.VK4-1-T (Fab, name in Kabat numbering, V domains shown)
# VH: B2 VH with E65K, A66G, T71S, D100E
# VL: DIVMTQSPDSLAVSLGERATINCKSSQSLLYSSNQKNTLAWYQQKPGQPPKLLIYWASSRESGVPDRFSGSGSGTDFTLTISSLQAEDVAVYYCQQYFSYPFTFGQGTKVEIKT
# notes: NiNTA-purified Fab, which implies a His tag that is not described
# B4: humanized 280.46.3.4 antibody comprising 280.VH3-66-4 paired with 280.VK4-1-T, human IgG1/kappa (antibody, V domains shown)
# VH: B2 VH with E65K, A66G, T71S
# VL: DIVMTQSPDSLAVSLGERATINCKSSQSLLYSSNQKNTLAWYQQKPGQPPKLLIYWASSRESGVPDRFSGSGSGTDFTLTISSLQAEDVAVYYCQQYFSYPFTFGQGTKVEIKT
# B5: humanized 280.46.3.4 antibody comprising 280.VH3-66-18 paired with 280.VK4-1-T, human IgG1/kappa (antibody, V domains shown)
# VH: B2 VH with D32E, E65K, A66G, T71S
# VL: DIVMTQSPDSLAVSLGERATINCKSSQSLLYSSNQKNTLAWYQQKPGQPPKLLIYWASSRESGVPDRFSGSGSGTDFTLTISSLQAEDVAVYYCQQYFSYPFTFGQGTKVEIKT
# B6: Fab of D32E mutant: 280.VH3-66-18 paired with 280.VK4-1-T (Fab, V domains shown)
# VH: B2 VH with D32E, E65K, A66G, T71S
# VL: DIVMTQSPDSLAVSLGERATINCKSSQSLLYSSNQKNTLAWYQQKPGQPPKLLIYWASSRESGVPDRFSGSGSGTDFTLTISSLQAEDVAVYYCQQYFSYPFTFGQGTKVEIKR
# notes: NiNTA-purified Fab, which implies a His tag that is not described; also called version 18
# B7: murine IL-22RA (recombinant, form not stated) (receptor, UniProt Q80XZ4 16-230, looked up)
# chain: HTTVDTSGLLQHVKFQSSNFENILTWDGGPASTSDTVYSVEYKKYGERKWLAKAGCQRITQKFCNLTMETRNHTEFYYAKVTAVSAGGPPVTKMTDRFSSLQHTTIKPPDVTCIPKVRSIQMLVHPTLTPVLSEDGHQLTLEEIFHDLFYRLELHVNHTYQMHLEGKQREYEFLGLTPDTEFLGSITILTPILSKESAPYVCRVKTLPDRTWAYS
# notes: also called mIL-22RA; mouse IL-22 receptor alpha
# B8: human IL-22RA (recombinant, form not stated) (receptor)
# chain: HAPEDPSDLLQHVKFQSSNFENILTWDSGPEGTPDTVYSIEYKTYGERDWVAKKGCQRITRKSCNLTVETGNLTELYYARVTAVSAGGRSATKMTDRFSSLQHTTLKPPDVTCISKVRSIQMIVHPTPTPIRAGDGHRLTLEDIFHDLFYHLELQVNRTYQMHLGGKQREYEFFGLTPDTEFLGTIMICVPTWAKESAPYMCRVKTLPDRTWT
# notes: a soluble ECD is likely; also called hIL-22RA; human interleukin 22 receptor alpha
# What was measured:
# [1] = molecular target: T1, human IL-22RA on cells (HepG2 hepatoma …); test: cell-based or functional assay
# [2] = molecular target: T2, murine IL-22RA on cells (HEPA1-6 …); test: cell-based or functional assay
# [3] = molecular target: B8; test: Biacore, NiNTA-purified Fab
# [4] = molecular target: T3, 280.346.TSY (humanized anti-human IL-22RA antibody comprising 280.VH3-66-46 paired with 280.VK4-1-TSY, human …); test: competitive ELISA: soluble competitor against coated human IL-22RA-ECD for biotinylated 280-346-TSY; soluble murine IL-22RA as competitor
# T3 construct: Produced in CHO cells; also called 280.VH3-66-46/VK4-1-TSY; 280.VH3-66.46 paired with 280.IGKV4-1-TSY
# T3 sequence (VL, as listed by the source): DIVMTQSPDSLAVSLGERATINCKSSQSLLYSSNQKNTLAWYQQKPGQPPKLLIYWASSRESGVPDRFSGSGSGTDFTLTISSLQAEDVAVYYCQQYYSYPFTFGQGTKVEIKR
# Description: (§1) FIG. 23 reports the results of a competitive ELISA done to measure the specificity of 280.346.TSY to human IL-22RA. Microtiter plates were coated with human IL-22RA-ECD (i.e. IL-22RA-Extra Cellular Domain). Biotinylated 280-346-TSY antibody was added to the plate in the presence of competitors: human interleukin 22 receptor alpha (hIL-22RA), human IL-22 binding protein (hIL-22BP), murine IL-22 receptor alpha (mIL-22RA), human IL-10 receptor alpha (hIL-10R) and human IL-20 receptor alpha (hIL-20R).
# (§2) Specificity and binding affinity of 280.346.TSY was determined using a competitive ELISA. Microtiter plates were coated with human IL-22RA-ECD (i.e. IL-22RA-Extra Cellular Domain). Biotinylated 280-346-TSY antibody was added to the plate in the presence of competitors: human interleukin 22 receptor alpha (hIL-22RA), human IL-22 binding protein (hIL-22BP), mouse IL-22 receptor alpha (mIL-22RA), human IL-10 receptor alpha (hIL-10R) and human IL-20 receptor alpha (hIL-20R).
# [5] = molecular target: T3, 280.346.TSY (humanized anti-human …); test: competitive ELISA: soluble competitor against coated human IL-22RA-ECD for biotinylated 280-346-TSY; soluble human IL-22RA as competitor
# Description: as §1, §2
binder,measurement,setting,value
B1,"IC50, STAT3 phosphorylation assay in human HepG2 hepatoma cells stimulated with recombinant human IL-22",[1],0.333 nM and 0.37 nM and 0.266 nM
same,"IC50, STAT3 phosphorylation assay in normal human keratinocytes stimulated with recombinant human IL-22",[1],0.542 nM
same,"IC50, proliferation assay in BaF3 cells transfected with human IL-22RA and IL-10RB, cultured with recombinant human IL-22",[1],0.545 nM and 0.587 nM
same,"IC50, proliferation assay in BaF3 cells transfected with murine IL-22RA and IL-10RB, cultured with recombinant murine IL-22",[2],0.849 nM and 1.47 nM
B2,"IC50, STAT3 phosphorylation assay in human HepG2 hepatoma cells stimulated with recombinant human IL-22",[1],0.258 nM
same,"IC50, proliferation assay in BaF3 cells transfected with human IL-22RA and IL-10RB, cultured with recombinant human IL-22",[1],0.34 nM
same,"fold potency against the mouse parental antibody 280.46.3.4, STAT3 phosphorylation assay in HepG2 cells",[1],1.4 fold
same,"fold potency against the mouse parental antibody 280.46.3.4, proliferation of human IL-22 receptor transfected BaF3 cells",[1],1.7 fold
same,"IC50, proliferation assay in BaF3 cells transfected with murine IL-22RA and IL-10RB, cultured with recombinant murine IL-22",[2],0.693 nM
same,"fold potency against the mouse parental antibody 280.46.3.4, proliferation of murine IL-22 receptor transfected BaF3 cells",[2],2.1 fold
B3,fold reduction of affinity against parental unmutated D32 (280.VH3-66-4),[3],~500 fold
B4,"IC50, STAT3 phosphorylation assay in human HepG2 hepatoma cells stimulated with recombinant human IL-22",[1],0.183 nM
same,"IC50, proliferation of human IL-22 receptor (IL-22RA and IL-10RB) transfected BaF3 cells",[1],0.334 nM
same,"fold potency against the mouse parental antibody 280.46.3.4, STAT3 phosphorylation assay in HepG2 cells",[1],1.8 fold
same,"fold potency against the mouse parental antibody 280.46.3.4, proliferation of human IL-22 receptor transfected BaF3 cells",[1],1.75 fold
same,"IC50, proliferation of murine IL-22 receptor (IL-22RA and IL-10RB) transfected BaF3 cells",[2],0.687 nM
same,"fold potency against the mouse parental antibody 280.46.3.4, proliferation of murine IL-22 receptor transfected BaF3 cells",[2],2.1 fold
B5,"IC50, STAT3 phosphorylation assay in human HepG2 hepatoma cells",[1],0.133 nM
same,"fold potency against the mouse parental antibody 280.46.3.4, STAT3 phosphorylation assay in HepG2 cells",[1],~3 fold
B6,fold decrease of the off rate against parental unmutated D32 (280.VH3-66-4),[3],~5 fold
same,fold increase of the on rate against parental unmutated D32 (280.VH3-66-4),[3],~2 fold
B7,IC50,[4],0.149 nM
B8,IC50,[5],0.0182 nM
